Like-named read-outs stand apart in the source and are kept apart here.
T1: Mouse NOTUM (mouse, UniProt Q8R116 20-503)
T1 sequence: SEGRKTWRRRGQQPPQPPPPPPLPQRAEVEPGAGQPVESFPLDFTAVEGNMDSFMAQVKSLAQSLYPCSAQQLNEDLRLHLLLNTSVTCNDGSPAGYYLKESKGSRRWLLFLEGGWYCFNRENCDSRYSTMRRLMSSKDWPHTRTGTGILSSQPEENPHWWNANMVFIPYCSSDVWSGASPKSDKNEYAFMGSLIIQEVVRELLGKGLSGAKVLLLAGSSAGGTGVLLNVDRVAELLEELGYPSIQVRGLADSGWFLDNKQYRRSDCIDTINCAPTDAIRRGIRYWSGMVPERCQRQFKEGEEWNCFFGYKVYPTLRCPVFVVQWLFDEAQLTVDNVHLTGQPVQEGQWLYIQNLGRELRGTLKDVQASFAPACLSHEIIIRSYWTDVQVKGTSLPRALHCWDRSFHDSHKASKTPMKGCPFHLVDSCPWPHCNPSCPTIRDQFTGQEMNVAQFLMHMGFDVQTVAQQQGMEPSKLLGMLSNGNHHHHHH

T2: Human NOTUM (human, UniProt Q6P988 20-496)
T2 construct: also called human notum pectinacetylesterase; recombinant human NOTUM
T2 sequence: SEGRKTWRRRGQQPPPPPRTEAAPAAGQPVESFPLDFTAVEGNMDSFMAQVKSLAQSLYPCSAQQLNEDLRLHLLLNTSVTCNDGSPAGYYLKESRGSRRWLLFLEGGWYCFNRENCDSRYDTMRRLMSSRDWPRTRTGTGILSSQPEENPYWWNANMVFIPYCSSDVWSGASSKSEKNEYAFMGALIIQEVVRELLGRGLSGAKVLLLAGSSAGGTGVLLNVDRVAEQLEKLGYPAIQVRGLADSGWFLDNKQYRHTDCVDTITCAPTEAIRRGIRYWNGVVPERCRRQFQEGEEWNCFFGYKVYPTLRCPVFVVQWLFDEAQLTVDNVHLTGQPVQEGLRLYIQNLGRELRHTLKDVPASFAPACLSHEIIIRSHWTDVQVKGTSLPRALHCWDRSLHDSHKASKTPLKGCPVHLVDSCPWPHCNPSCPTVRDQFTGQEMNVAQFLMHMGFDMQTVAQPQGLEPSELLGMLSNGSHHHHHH

T3: Guinea pig NOTUM (guinea pig, UniProt Q6P988 21-496 (human entry))
T3 construct: Expressed by transient transfection
T3 chain: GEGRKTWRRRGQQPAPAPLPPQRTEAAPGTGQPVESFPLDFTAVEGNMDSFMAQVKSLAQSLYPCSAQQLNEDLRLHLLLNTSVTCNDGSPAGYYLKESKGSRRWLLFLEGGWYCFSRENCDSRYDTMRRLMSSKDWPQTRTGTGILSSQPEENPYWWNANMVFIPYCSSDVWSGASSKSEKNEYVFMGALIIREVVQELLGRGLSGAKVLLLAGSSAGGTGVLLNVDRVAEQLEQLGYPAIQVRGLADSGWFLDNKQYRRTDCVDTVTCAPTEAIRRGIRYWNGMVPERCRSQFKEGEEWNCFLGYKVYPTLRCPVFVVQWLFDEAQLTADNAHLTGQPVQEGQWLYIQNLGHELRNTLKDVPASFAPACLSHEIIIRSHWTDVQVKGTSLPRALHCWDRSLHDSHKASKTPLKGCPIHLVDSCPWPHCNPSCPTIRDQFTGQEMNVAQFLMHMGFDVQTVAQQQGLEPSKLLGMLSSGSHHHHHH

T4: Rhesus monkey NOTUM (rhesus monkey, UniProt Q6P988 20-491 (human entry))
T4 construct: Produced by transient transfection; also called Rhesus macaque NOTUM; rhesus NOTUM
T4 chain: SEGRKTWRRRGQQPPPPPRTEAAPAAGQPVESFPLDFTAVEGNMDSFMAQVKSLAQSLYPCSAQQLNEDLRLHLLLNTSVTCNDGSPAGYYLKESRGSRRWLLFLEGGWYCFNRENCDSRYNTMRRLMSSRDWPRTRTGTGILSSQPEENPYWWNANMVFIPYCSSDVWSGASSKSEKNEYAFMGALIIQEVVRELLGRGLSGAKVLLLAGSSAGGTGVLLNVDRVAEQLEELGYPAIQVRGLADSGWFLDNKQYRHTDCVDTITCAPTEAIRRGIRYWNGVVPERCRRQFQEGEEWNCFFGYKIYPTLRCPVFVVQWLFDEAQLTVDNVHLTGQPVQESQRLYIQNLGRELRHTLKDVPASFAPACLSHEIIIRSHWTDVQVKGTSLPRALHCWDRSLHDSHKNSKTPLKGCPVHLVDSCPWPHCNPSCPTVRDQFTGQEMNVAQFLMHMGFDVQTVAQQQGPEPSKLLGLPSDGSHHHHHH

T5: Human NOTUM D137A/R139A (human, UniProt Q6P988 20-496)
T5 construct: Alanine mutant, expressed and secreted after transient transfection; little to no activity in the OPTS assay
T5 sequence: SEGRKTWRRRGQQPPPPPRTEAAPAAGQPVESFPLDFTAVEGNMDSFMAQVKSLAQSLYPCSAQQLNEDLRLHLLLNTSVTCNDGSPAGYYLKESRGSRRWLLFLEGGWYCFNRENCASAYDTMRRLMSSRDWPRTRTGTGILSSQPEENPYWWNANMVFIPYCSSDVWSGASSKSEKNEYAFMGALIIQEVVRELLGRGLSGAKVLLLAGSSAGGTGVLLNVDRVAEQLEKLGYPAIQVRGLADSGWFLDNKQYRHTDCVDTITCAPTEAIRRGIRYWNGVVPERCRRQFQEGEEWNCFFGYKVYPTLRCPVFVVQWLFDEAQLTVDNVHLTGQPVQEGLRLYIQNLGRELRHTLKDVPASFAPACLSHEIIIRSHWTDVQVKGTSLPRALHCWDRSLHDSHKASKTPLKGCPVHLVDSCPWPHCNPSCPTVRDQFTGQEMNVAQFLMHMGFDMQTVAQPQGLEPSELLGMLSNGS

T6: Human NOTUM R144A/R145A (human, UniProt Q6P988 20-496)
T6 construct: Alanine mutant, expressed and secreted after transient transfection
T6 sequence: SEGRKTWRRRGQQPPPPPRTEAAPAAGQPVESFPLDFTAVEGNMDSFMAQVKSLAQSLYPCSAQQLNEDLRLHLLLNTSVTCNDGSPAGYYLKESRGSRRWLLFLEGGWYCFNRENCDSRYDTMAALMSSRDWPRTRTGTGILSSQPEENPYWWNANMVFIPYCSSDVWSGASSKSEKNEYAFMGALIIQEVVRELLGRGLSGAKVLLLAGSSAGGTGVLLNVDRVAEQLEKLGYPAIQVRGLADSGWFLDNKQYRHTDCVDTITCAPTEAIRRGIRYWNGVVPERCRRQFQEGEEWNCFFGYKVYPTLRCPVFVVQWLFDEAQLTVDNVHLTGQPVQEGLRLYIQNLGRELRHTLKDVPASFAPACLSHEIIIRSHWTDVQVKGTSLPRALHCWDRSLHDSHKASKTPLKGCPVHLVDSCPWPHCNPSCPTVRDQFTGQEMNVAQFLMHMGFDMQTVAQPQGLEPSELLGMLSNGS


What was measured:
[1] = molecular target: T1, Mouse NOTUM; assay: cell-based or functional assay
[2] = molecular target: T2, Human NOTUM; assay: ELISA (column 'Human NOTUM binding')
[3] = molecular target: T3, Guinea pig NOTUM; assay: ELISA
[4] = molecular target: T4, Rhesus monkey NOTUM; assay: ELISA
[5] = molecular target: T2, Human NOTUM; assay: Biacore 3000
Procedure: (§1) Binding affinities of certain anti-NOTUM MAbs was determined using a Biacore 3000. In order to obtain meaningful affinity values for binding to multimeric […] NOTUM protein, antibody FAb fragments were generated by digestion of whole IgG with the protease Ficin, followed by removal of undigested IgG and Fc fragments by protein A affinity chromatography. Affinity values for binding of FAbs and whole IgG to human NOTUM corresponded, and their affinity values were in the single to low double digit nM range, as shown in Table 3.

[6] = molecular target: T2, Human NOTUM; assay: cell-based or functional assay
[7] = molecular target: T2, Human NOTUM; assay: cell-based or functional assay; remark: listed apart in the source
[8] = molecular target: T5, Human NOTUM D137A/R139A; assay: ELISA
[9] = molecular target: T6, Human NOTUM R144A/R145A; assay: ELISA
[10] = molecular target: T1, Mouse NOTUM; assay: Biacore 3000
Procedure: as §1

[11] = molecular target: T2, Human NOTUM; assay: cell-based or functional assay; remark: listed apart in the source
[12] = molecular target: T1, Mouse NOTUM; assay: cell-based or functional assay; remark: listed apart in the source

Row | Binder | OPTS IC50 (nM; mouse NOTUM) [1] [nM] | binding result [3] | binding result [4] | Kd [5] [µM] | kon [5] [M⁻¹ s⁻¹] | OPTS IC50 (nM; human NOTUM) [7] [nM] | Wnt signaling IC50 (nM; human NOTUM) [7] [nM] | other results
1 | MAb 2.55 (antibody, IgG2a, V domains shown, Mouse monoclonal antibody from Campaign 2, IgG2a) VH: EVQLQQSGTVLARPGALVKMSCKASGYTFTSYWMHWVKQRPGQGLEWIGAIYPGKSDTRYNQKFKDKAKLTAVTSTSTAYMDLSSLTDEDSAVYYCSRRYGNFYAMDYWGQGTSVTVSS VL: SIVMTQTPKFLLVSAGDRVTMTCKASQSVSNDVAWYQQKPGQSPELLIYYASDRYTGVPDRFTGSGYGTDFTLTISTVQAEDLAVYFCQQDYSSPYTFGGGTKLETKR | 26.1 |  |  |  |  |  |  | binding result [2]: binds
2 | MAb 2.1029 (antibody, IgG2a, V domains shown, Mouse monoclonal antibody from Campaign 2, IgG2a) VH: QVQLKESGPGLVAPSQSLSITCTVSGFSLTSYGVHWVRQPPGKGLEWLGVIWAGGSTNYNSALMSRLSISKDNSKSQVFLKMNSLQTDDTAIYFCARDGDYGTIYAMDYWGQGTSVTVSS VL: DIQMTQTTSSLSASLGDRVTISCRASQDISNYLNWYQQKPDGTVKLLIYYTSRLHSGVPSRFTGSGSGTDYSLTISNLEQEDIATYFCQQGKTLPRTFGGGTMLEIKR | 29.2 | binds | binds | 0.00599 | 151000 | 5.77 | 14 | IC50, neutralization in the Wnt signaling assay [6]: 0.014 µM
3 | MAb 2.78 (antibody, V domains shown, Mouse monoclonal antibody from Campaign 2 (raised against mouse NOTUM), IgG2b) VH: DVQLVESGGGLVQPGGSRKLSCAASGFTFSSFGMHWVRQAPEKGLEWVAYITSGSGAIYYADTVRGRFTISRDTPKNTLFLQMTSLRSEDTAMYYCARSADGLDYWGQGTSVTVSS VL: DIQMTQSPASLYVSVGETVTITCRASENIYSNLAWYQQKQGKSPQLLVYGATNLADGVPSRFSGSGSGTQYSLKINSLKSEDFGSYYCQHFWGTPFTFGSGTKLEIKR | 35.6 | binds | binds | 0.0176 | 47900 | 15.5 | 45.9 | binding result [8]: no binding; binding result [9]: no binding; Wnt signaling IC50 (nM; mouse NOTUM) [1]: 3.75 nM
4 | 2.78 Fab (Fab, V domains shown, Fab made by digestion of whole IgG (mouse IgG2b) with ficin) VH: DVQLVESGGGLVQPGGSRKLSCAASGFTFSSFGMHWVRQAPEKGLEWVAYITSGSGAIYYADTVRGRFTISRDTPKNTLFLQMTSLRSEDTAMYYCARSADGLDYWGQGTSVTVSS VL: DIQMTQSPASLYVSVGETVTITCRASENIYSNLAWYQQKQGKSPQLLVYGATNLADGVPSRFSGSGSGTQYSLKINSLKSEDFGSYYCQHFWGTPFTFGSGTKLEIKR |  |  |  | 0.0154 | 87700 |  |  | koff [5]: 0.00136 s⁻¹; Kd [10]: 0.00499 µM; kon [10]: 39100 M⁻¹ s⁻¹
5 | 1.802 Fab (Fab, V domains shown, Fab made by digestion of whole IgG (mouse IgG1) with ficin) VH: EVQLVESGGGLVKPGGSLKLSCAASGFTFSDYGMHWFRQAPEKGLEWVAYISSGSRTVYYADTVKGRFTISRDNAKNTLSLQMTSLRSEDTAMYYCARKHYNGGYFDVWGTGTTVTVSS VL: DIVLTQSPASLAVSLGQRATISCRASKIVSTSGYSYMHWYQQKPGQPPKLLIYLASNLESGVPARFSGSGSGTDFTLNIHPVEEEDAATYYCQHSRELPPTFGSGTKLEIKR |  |  |  | 0.00091 | 899000 |  |  | binding result [10]: no binding
6 | MAb 1.731 (antibody, IgG1, V domains shown) VH: EVQLQQSGPELVKPGASVKVSCKASGYPFTDYFIHWVKQTHGKSLEWIGYFFPKNGANGYNQKFEGKVTLTVDKSSSTAYMELRSLTSEDSAVYYCARRYGNYYSMDYWGQGTSVTVSS VL: SFVMTQTPKFLLVSAGDRVTITCKASQSVGDDVAWYQQKPGQSPTLLIYRVSNRYTGVPDRFTGSGYGTDFTFTINTVQAEDLAVYFCQQDYSSPYTFGGGTQLEVKR |  |  |  |  |  |  |  | OPTS IC50 (nM; human NOTUM) [11]: > 167 nM; Wnt signaling IC50 (nM; human NOTUM) [11]: 15.5 nM; OPTS IC50 (nM; mouse NOTUM) [12]: 197 nM

— patent US20130302346A1 (LEXICON PHARMACEUTICALS, published 2013)
